Assay results reported in patent US20110245473A1 (Chugai, published 2011).
Residue numbers refer to the chain shown, from its start. In names and notes the source's numbering stands. Values belong to the binder of their own block, whether it stands above or below them.

What was measured:
[1] = target: T1, SR344 (soluble human IL-6R, N-terminal 1st to 344th amino acids) (human, UniProt P08887 20-344, limits assumed); assay: cell-based or functional assay
T1 sequence (looked up): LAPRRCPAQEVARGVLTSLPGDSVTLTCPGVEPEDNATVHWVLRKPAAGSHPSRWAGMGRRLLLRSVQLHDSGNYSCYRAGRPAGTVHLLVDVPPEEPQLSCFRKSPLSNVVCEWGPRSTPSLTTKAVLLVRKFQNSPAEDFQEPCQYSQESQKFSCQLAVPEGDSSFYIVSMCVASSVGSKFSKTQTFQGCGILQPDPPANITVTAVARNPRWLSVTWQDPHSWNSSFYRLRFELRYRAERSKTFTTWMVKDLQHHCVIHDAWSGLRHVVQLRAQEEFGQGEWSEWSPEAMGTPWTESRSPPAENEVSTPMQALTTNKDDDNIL

[2] = target: T1, SR344 (soluble human IL-6R, N-terminal …); assay: SPR (Biacore T100), antibody captured on Protein A/G, SR344 as analyte, 37°C
[3] = target: T1, SR344 (soluble human IL-6R, N-terminal …); assay: SPR (Biacore T100), SR344 as analyte, 37°C; end of the range tied by the KD values of Table 16
[4] = target: T2, recombinant human IL-6R sR (R&D systems) (human, UniProt P08887 20-358); assay: SPR (Biacore T100), antibody captured on Protein A, rhIL-6sR as analyte, 25°C
T2 construct: Bought soluble receptor; also called rhIL-6sR; rhIL-s6R
T2 sequence (looked up): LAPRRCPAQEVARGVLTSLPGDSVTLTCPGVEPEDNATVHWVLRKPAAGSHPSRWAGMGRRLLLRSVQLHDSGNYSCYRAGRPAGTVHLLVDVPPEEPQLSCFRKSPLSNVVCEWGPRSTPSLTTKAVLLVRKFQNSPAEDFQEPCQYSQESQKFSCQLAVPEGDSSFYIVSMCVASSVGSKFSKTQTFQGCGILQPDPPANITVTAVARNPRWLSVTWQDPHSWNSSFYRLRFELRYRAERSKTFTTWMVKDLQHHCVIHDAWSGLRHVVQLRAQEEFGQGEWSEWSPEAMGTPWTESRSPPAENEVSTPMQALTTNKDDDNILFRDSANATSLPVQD

[5] = target: T1, SR344 (soluble human IL-6R, N-terminal …); assay: SPR (Biacore T100), antibody captured on Protein A/G, 37°C; end of the range tied by the KD values of Table 3
[6] = target: T2, recombinant human IL-6R sR (R&D systems); assay: as above
[7] = target: T2, recombinant human IL-6R sR (R&D systems); assay: SPR (Biacore T100), antibody captured on Protein A, rhIL-6sR as analyte, 25°C; remark: listed apart in the source
[8] = target: T3, soluble human FcRn (complex of FcRn and β2-microglobulin) (human, UniProt P55899 24-290; P61769 21-119); assay: SPR (Biacore 3000), antibody captured, human FcRn as analyte, pH 6.0
T3 construct: Expressed constructs contain the signal regions (FcRn Met1-Leu290; β2-microglobulin Met1-Met119); also called hFcRn

B2: Fv3-M73 (antibody, V domains shown)
VH: QVQLQESGPGLVKPSETLSLTCAVSGHSISHDHAWSWVRQPPGEGLEWIGFISYSGITNYNPTLQGRVTISRDNSKNTLYLQMNSLRAEDTAVYYCARSLARTTAMDYWGEGTLVTVSS
VL: DIQMTQSPSSLSASVGDSVTITCQASRDISSHLNWYQQKPGKAPELLIYYGSHLLSGVPSRFSGSGSGTDFTFTISSLEAEDAATYYCGQGNRLPYTFGQGTKVEIER
notes: also called H chain VH4-M73, L chain VL1-kappa
fold higher affinity than TOCILIZUMAB [3]: 3 times

B5: H53/L28 (antibody, IgG1, V domains shown)
VH: QVQLQESGPGLVKPSETLSLTCAVSGYSISDDHAWSWVRQPPGEGLEWIGYISYSGITNYNPSLKGRVTISRDTSKNQFSLKLSSVTAADTAAYYCARSLARTTAMDYWGEGTLVTVSS
VL: DIQMTQSPSSLSASVGDSVTITCQASQDISSYLNWYQQKPGKAPELLIYYGSELHSGVPSRFSGSGSGTDFTFTISSLEAEDAATYYCQQGNSLPYTFGQGTKVEIE
notes: made from the humanized PM-1 IgG1 vectors; also called altered antibody H53/L28
fold reduction of KD compared to WT [2]: ~6 fold

B7: RDC-23 (antibody, V domains shown)
VH: QVQLQESGPGLVRPSQTLSLTCTVSGYSITSDHAWSWVRQPPGRGLEWIGYISYSGITTYNPSLKSRVTMLRDTSKNQFSLRLSSVTAADTAVYYCARVLARITAMDYWGQGSLVTVSS
VL: DIQMTQSPSSLSASVGDRVTITCRASQDISSYLNWYQQKPGKAPKLLIYYTSRLHSGVPSRFSGSGSGTDFTFTISSLQPEDIATYYCGQGNRLPYTFGQGTKVEIK
notes: IgG; also called H chain RDC-5H, L chain RDC-11L
BaF/gp130-neutralizing activity, 100% inhibitory concentration, against WT [1]: ~100 times higher than WT
fold improved affinity compared to WT [5]: 40 to 60 times
fold improved affinity compared to WT [6]: 40 to 60 times

B9: WT-M58 (antibody)
heavy: QVQLQESGPGLVRPSQTLSLTCTVSGYSITSDHAWSWVRQPPGRGLEWIGYISYSGITTYNPSLKSRVTMLRDTSKNQFSLRLSSVTAADTAVYYCARSLARTTAMDYWGQGSLVTVSSASTKGPSVFPLAPSSKSTSGGTAALGCLVKDYFPEPVTVSWNSGALTSGVHTFPAVLQSSGLYSLSSVVTVPSSNFGTQTYTCNVDHKPSNTKVDKTVERKSCVECPPCPAPPVAGPSVFLFPPKPKDTLMISRTPEVTCVVVDVSQEDPEVQFNWYVDGVEVHNAKTKPREEQFNSTFRVVSVLTVVHQDWLNGKEYKCKVSNKGLPAPIEKTISKTKGQPREPQVYTLPPSQEEMTKNQVSLTCLVKGFYPSDIAVEWESNGQPENNYKTTPPMLDSDGSFFLYSKLTVDKSRWQEGNVFSCSVMHEALHNHYTQKSLSLSP
light: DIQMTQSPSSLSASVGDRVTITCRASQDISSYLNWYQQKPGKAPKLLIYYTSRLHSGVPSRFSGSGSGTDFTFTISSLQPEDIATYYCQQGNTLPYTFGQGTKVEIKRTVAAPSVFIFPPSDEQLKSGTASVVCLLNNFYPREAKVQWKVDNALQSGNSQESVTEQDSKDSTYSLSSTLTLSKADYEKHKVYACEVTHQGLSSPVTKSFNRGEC
notes: L(WT) as L chain; copies: 2 + 2
binding relative to WT-IgG1 [8]: ~1.4 times of WT-IgG1

The next lines start with the values.

BaF/gp130-neutralizing activity, 100% inhibitory concentration, against WT [1]: ≥ 100 times higher than WT
ka relative to PF1-IgG1 [2]: ~0.5 fold of PF1-IgG1
B1: F2H/L39-IgG1 (antibody, V domains shown)
VH: B2 VH with H27Y, H31D, F51Y, T63S, G66D, S99L, T103A, E111Q, T113I
VL: B2 VL with R27E, H32Y, H53E, L55E

fold higher affinity than TOCILIZUMAB [3]: 2 times
B3: Fv4-M73 (antibody, V domains shown)
VH: B2 VH with T63S
VL: B2 VL with R27T
notes: also called H chain VH3-M73, L chain VL3-kappa

fold higher affinity than WT [4]: ~50 times
BaF/gp130-neutralizing activity, 100% inhibitory concentration, against WT [1]: ~50 times higher than WT
B4: RD-6 (antibody, V domains shown)
VH: B7 VH with V99L, I103A
VL: B7 VL with G89Q, R93T

fold improved affinity compared to WT [2]: ~150 times
B6: PF1 antibody (antibody, IgG1, V domains shown)
VH: B5 VH with S99V, T103I
VL: B5 VL with Q89G, S93R
notes: also called PF1-IgG1; PF1_H/PF1_L

koff [7]: 3.8e-05 s⁻¹
B8: RDC-8 (antibody, V domains shown)
VH: B7 VH with V99L
VL: B7 VL with G89Q, R93T
notes: IgG; also called H chain RDC-8H, L chain L(WT)

binding relative to WT-IgG1 [8]: ~3.8 times of WT-IgG1
B10: WT-M73 (antibody)
heavy: B9 heavy with N432A
light: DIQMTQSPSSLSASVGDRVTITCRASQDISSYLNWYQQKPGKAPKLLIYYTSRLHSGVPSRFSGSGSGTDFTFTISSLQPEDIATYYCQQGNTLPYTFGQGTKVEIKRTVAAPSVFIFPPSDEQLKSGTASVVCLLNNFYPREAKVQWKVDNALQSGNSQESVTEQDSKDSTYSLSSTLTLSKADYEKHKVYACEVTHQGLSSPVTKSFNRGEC
notes: WT-M58 with alanine at position 434 (EU numbering); L(WT) as L chain; copies: 2 + 2
